Target: glutathione reductase (Type III, Sigma)

Wcs120 protein (50 kDa protein), expressed in E. coli from pET11a and purified
remaining glutathione reductase activity after denaturation (percent of control) (% of control activity (-20° C., 1 µg/ml)): 40

Bovine serum albumin (Pharmacia, DNase free 10 mg/ml) (from UniProt P02769)
remaining glutathione reductase activity after denaturation (percent of control) (scale: % of control activity): 71

WCOR410 protein, expressed from pET22b and purified with the His*Bind buffer kit
remaining glutathione reductase activity after denaturation (percent of control) (% of control activity (-20° C., 1 µg/ml)): 42

— patent US5731419
